Changes are numbered by the printed parent chain. Names may count otherwise.
T1: monomeric human BCMA (human, UniProt Q02223 1-54, limits assumed)
T1 construct: also called monomeric BCMA antigen
T1 sequence: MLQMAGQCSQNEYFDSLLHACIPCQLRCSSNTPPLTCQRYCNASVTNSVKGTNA

B1: BCMB128 (antibody, human IgG4 S228P, lambda, F234A L235A, V domains shown)
VH: QLQLQESGPGLVKPSETLSLTCTVSGGSISSGSYFWGWIRQPPGKGLEWIGSIYYSGITYYNPSLKSRVTISVDTSKNQFSLKLSSVTAADTAVYYCARHDGATAGLFDYWGQGTLVTVSS
VL: SYVLTQPPSVSVAPGQTARITCGGNNIGSKSVHWYQQPPGQAPVVVVYDDSDRPSGIPERFSGSNSGNTATLTISRVEAGDEAVYYCQVWDSSSDHVVFGGGTKLTVLG
notes: IgG4 S228P, L234A, L235A; also called BCBM128
B2: BCMB176 (antibody, human IgG4 S228P, lambda, F234A L235A, V domains shown)
VH: B1 VH with G32S
VL: B1 VL
notes: IgG4 S228P, L234A, L235A; also called BCBM176
B3: BCMB129 (antibody, human IgG4 S228P, lambda, F234A L235A, V domains shown)
VH: B1 VH with I58S, T104V
VL: B1 VL
notes: IgG4 S228P, L234A, L235A; also called BCBM129

What follows are binders tested against T1, monomeric human BCMA (assay: SPR, monomeric human BCMA).

| Kd | koff | kon | Binder |
| --- | --- | --- | --- |
| 2.07 nM | 0.0087 s⁻¹ | 4.2e+06 M⁻¹ s⁻¹ | B1 |
| 7.18 nM | 0.0288 s⁻¹ | 4e+06 M⁻¹ s⁻¹ | B2 |
| 5.47 nM | 0.00843 s⁻¹ | 1.54e+06 M⁻¹ s⁻¹ | B3 |

Source: patent US20170051068A1 (Janssen / Centocor, published 2017)
